T1: PUF4 RNA-binding domain (Saccharomyces cerevisiae, UniProt P25339 537-888)
T1 sequence: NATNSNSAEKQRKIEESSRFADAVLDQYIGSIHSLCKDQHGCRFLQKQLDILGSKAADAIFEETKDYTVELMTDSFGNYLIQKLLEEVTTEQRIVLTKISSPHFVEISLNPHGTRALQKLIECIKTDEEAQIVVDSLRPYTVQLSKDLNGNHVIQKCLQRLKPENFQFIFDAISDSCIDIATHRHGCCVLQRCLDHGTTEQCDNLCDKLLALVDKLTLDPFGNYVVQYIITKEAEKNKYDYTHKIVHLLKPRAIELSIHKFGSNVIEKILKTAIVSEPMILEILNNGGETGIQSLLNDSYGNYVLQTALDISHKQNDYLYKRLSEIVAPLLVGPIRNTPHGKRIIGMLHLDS

B1: Ie_S1_P5E.1_K5.1_C5.1_H5.1_[+3TTC]_A5.1_F5.1_T5.1 (ssRNA)
RNA: UCUCUUUGUUUCAUUAUUAUCUCUU
B2: Ie_S1_P5E.1_K5.1_C5.1_H5.1_[+3TCTCT]_A5.1_F5.1_T5.1 (ssRNA)
RNA: UCUCUUUGUUCUCUAUUAUUAUCUCUU
B3: Ie_S1_P5E.1_K5.1_C5.1_H5.1_[+2TCTC]_A5.1_F5.1_T5.1 (ssRNA)
RNA: UCUCUUUGUCUCUAUUAUUAUCUCUU
B4: Ie_S1_P5E.1_K5.1_C5.1_H5.1_[+3CCT]_A5.1_F5.1_T5.1 (ssRNA)
RNA: UCUCUUUGUCCUAUUAUUAUCUCUU
B5: Ie_S1_P5E.1_K5.1_C5.1_H5.1_[+2T]_A5.1_F5.1_T5.1 (ssRNA)
RNA: UCUCUUUGUUAUUAUUAUCUCUU
B6: Ie_S1_P5E.1_K5.1_C5.1_H5.1_[+2CT]_A5.1_F5.1_T5.1 (ssRNA)
RNA: UCUCUUUGCUUAUUAUUAUCUCUU
B7: Ie_S1_P5E.1_K5.1_C5.1_H5.1_[+3TTCCT]_A5.1_F5.1_T5.1 (ssRNA)
RNA: UCUCUUUGUUUCCUAUUAUUAUCUCUU
B8: Ie_S1_P5E.1_K5.1_C5.1_H5.1_[+2CTT]_A5.1_F5.1_T5.1 (ssRNA)
RNA: UCUCUUUGCUUUAUUAUUAUCUCUU
B9: Ie_S1_P5E.1_K5.1_C5.1_H5.1_[+4CCCTT]_A5.1_F5.1_T5.1 (ssRNA)
RNA: UCUCUUUGUACCCUUUUAUUAUCUCUU
B10: Ie_S1_P5E.1_K5.1_C5.1_H5.1_[+3CCCT]_A5.1_F5.1_T5.1 (ssRNA)
RNA: UCUCUUUGUCCCUAUUAUUAUCUCUU
B11: Ie_S1_P5E.1_K5.1_C5.1_H5.1_[+2TT]_A5.1_F5.1_T5.1 (ssRNA)
RNA: UCUCUUUGUUUAUUAUUAUCUCUU
B12: Ie_S1_P5E.1_K5.1_C5.1_H5.1_A5.1_[+6TTT]_F5.1_T5.1 (ssRNA)
RNA: UCUCUUUGUAUUUUUAUUAUCUCUU
B13: Ie_S1_P5E.1_K5.1_C5.1_H5.1_[+3CCTCT]_A5.1_F5.1_T5.1 (ssRNA)
RNA: UCUCUUUGUCCUCUAUUAUUAUCUCUU
B14: Ie_S1_P5E.1_K5.1_C5.1_H5.1_[+3CCTC]_A5.1_F5.1_T5.1 (ssRNA)
RNA: UCUCUUUGUCCUCAUUAUUAUCUCUU
B15: Ie_S1_P5E.1_K5.1_C5.1_H5.1_[+2TCTCT]_A5.1_F5.1_T5.1 (ssRNA)
RNA: UCUCUUUGUCUCUUAUUAUUAUCUCUU
B16: Ie_S1_P5E.1_K5.1_C5.1_H5.1_[+3TC]_A5.1_F5.1_T5.1 (ssRNA)
RNA: UCUCUUUGUUCAUUAUUAUCUCUU
B17: Ie_S1_P5E.1_K5.1_C5.1_H5.1_[+4TTCCT]_A5.1_F5.1_T5.1 (ssRNA)
RNA: UCUCUUUGUAUUCCUUUAUUAUCUCUU
B18: Ie_S1_P5E.1_K5.1_C5.1_H5.1_A5.1_[+5TCT]_F5.1_T5.1 (ssRNA)
RNA: UCUCUUUGUAUUCUUAUUAUCUCUU
B19: Ie_S1_P5E.1_K5.1_C5.1_H5.1_[+4CCTCT]_A5.1_F5.1_T5.1 (ssRNA)
RNA: UCUCUUUGUACCUCUUUAUUAUCUCUU
B20: Ie_S1_P5E.1_K5.1_C5.1_H5.1_[+3CCC]_A5.1_F5.1_T5.1 (ssRNA)
RNA: UCUCUUUGUCCCAUUAUUAUCUCUU
B21: Ie_S1_P5E.1_K5.1_C5.1_H5.1_[+3CTT]_A5.1_F5.1_T5.1 (ssRNA)
RNA: UCUCUUUGUCUUAUUAUUAUCUCUU
B22: Ia_S2_P3E.1_K3.1_C3.1_H3.1_[T1A]_A3.1_F3.1_T3.1 (ssRNA)
RNA: UUUGAUUAAUAUGAUAUCGUUCUUUCUAGUAUAUAUUCUUUCUCGAUAUCAUAUUAAUCUUU
B23: Ib_S2_P3E.1_K3.1_C3.1_H3.1_[T1A]_A3.1_F3.1_[A8G]_T3.1 (ssRNA)
RNA: UUUGAUUAAUAUGAUAUCGUUCUUUCUAGUAUAUGUUCUUUCUCGAUAUCAUAUUAAUCUUU
B24: Ib_S2_P3E.1_K3.1_C3.1_H3.1_[G2C]_A3.1_F3.1_[A8C]_T3.1 (ssRNA)
RNA: UUUGAUUAAUAUGAUAUCGUUCUUUCUUCUAUAUCUUCUUUCUCGAUAUCAUAUUAAUCUUU
B25: Ib_S2_P3E.1_K3.1_C3.1_H3.1_[T1C]_A3.1_F3.1_[A8G]_T3.1 (ssRNA)
RNA: UUUGAUUAAUAUGAUAUCGUUCUUUCUCGUAUAUGUUCUUUCUCGAUAUCAUAUUAAUCUUU
B26: Ib_S2_P3E.1_K3.1_C3.1_H3.1_[T1G]_A3.1_F3.1_[A8T]_T3.1 (ssRNA)
RNA: UUUGAUUAAUAUGAUAUCGUUCUUUCUGGUAUAUUUUCUUUCUCGAUAUCAUAUUAAUCUUU
B27: Ie_S1_P5E.1_K5.1_C5.1_H5.1_[+3TCC]_A5.1_F5.1_T5.1 (ssRNA)
RNA: UCUCUUUGUUCCAUUAUUAUCUCUU
B28: Ie_S1_P5E.1_K5.1_C5.1_H5.1_[+3CTC]_A5.1_F5.1_T5.1 (ssRNA)
RNA: UCUCUUUGUCUCAUUAUUAUCUCUU
B29: Ie_S1_P5E.1_K5.1_C5.1_H5.1_A5.1_[+5TTC]_F5.1_T5.1 (ssRNA)
RNA: UCUCUUUGUAUUUCUAUUAUCUCUU
B30: Ie_S1_P5E.1_K5.1_C5.1_H5.1_[+4CTT]_A5.1_F5.1_T5.1 (ssRNA)
RNA: UCUCUUUGUACUUUUAUUAUCUCUU
B31: Ie_S1_P5E.1_K5.1_C5.1_H5.1_[+3CTCTC]_A5.1_F5.1_T5.1 (ssRNA)
RNA: UCUCUUUGUCUCUCAUUAUUAUCUCUU
B32: Ie_S1_P5E.1_K5.1_C5.1_H5.1_[+2CTCT]_A5.1_F5.1_T5.1 (ssRNA)
RNA: UCUCUUUGCUCUUAUUAUUAUCUCUU
B33: Ie_S1_P5E.1_K5.1_C5.1_H5.1_[+4TCC]_A5.1_F5.1_T5.1 (ssRNA)
RNA: UCUCUUUGUAUCCUUAUUAUCUCUU
B34: Ie_S1_P5E.1_K5.1_C5.1_H5.1_[+3TTT]_A5.1_F5.1_T5.1 (ssRNA)
RNA: UCUCUUUGUUUUAUUAUUAUCUCUU
B35: Ie_S1_P5E.1_K5.1_C5.1_H5.1_[+3C]_A5.1_F5.1_T5.1 (ssRNA)
RNA: UCUCUUUGUCAUUAUUAUCUCUU
B36: Ie_S1_P5E.1_K5.1_C5.1_H5.1_[+3TCTC]_A5.1_F5.1_T5.1 (ssRNA)
RNA: UCUCUUUGUUCUCAUUAUUAUCUCUU
B37: Ie_S1_P5E.1_K5.1_C5.1_H5.1_[+4CCT]_A5.1_F5.1_T5.1 (ssRNA)
RNA: UCUCUUUGUACCUUUAUUAUCUCUU
B38: Ie_S1_P5E.1_K5.1_C5.1_H5.1_[+2TC]_A5.1_F5.1_T5.1 (ssRNA)
RNA: UCUCUUUGUCUAUUAUUAUCUCUU
B39: Ie_S1_P5E.1_K5.1_C5.1_H5.1_[+3TCT]_A5.1_F5.1_T5.1 (ssRNA)
RNA: UCUCUUUGUUCUAUUAUUAUCUCUU
B40: Ie_S1_P5E.1_K5.1_C5.1_H5.1_[+3CCCTT]_A5.1_F5.1_T5.1 (ssRNA)
RNA: UCUCUUUGUCCCUUAUUAUUAUCUCUU
B41: Ie_S1_P5E.1_K5.1_C5.1_H5.1_[+3TTCC]_A5.1_F5.1_T5.1 (ssRNA)
RNA: UCUCUUUGUUUCCAUUAUUAUCUCUU
B42: Ie_S1_P5E.1_K5.1_C5.1_H5.1_[+4CTCT]_A5.1_F5.1_T5.1 (ssRNA)
RNA: UCUCUUUGUACUCUUUAUUAUCUCUU
B43: Ie_S1_P5E.1_K5.1_C5.1_H5.1_[+2CTC]_A5.1_F5.1_T5.1 (ssRNA)
RNA: UCUCUUUGCUCUAUUAUUAUCUCUU

As usually defined, the Kd is the constant that tells how readily two partners part at equilibrium.

Where only a bound is given, the exact number is not on record here.

The series concerns the target T1, PUF4 RNA-binding domain. Kind of series: Mg; RNA-MaP; 20 mM Na-HEPES pH 7.4, 30 mM KOAc, 0.75 mM MgCl2, 0.1% Tween-20, 5% glycerol, 0.1 mg/mL BSA, 2 mM DTT; 25 C; 0.0125-409.6 nM protein. Particulars: tags: N-His6-TEV cleaved; C-SNAP kept, Cy3B-labelled; label: tethered on chip by stalled RNA polymerase.
Molecule B1 returned a Kd of 22.2 nM.

B2 displayed a dissociation constant (Kd) of 85.1 nM.

Molecule B3 gave a Kd of 405 nM.

Molecule B4 had a Kd of 110 nM.

For B5, binding was characterised by a dissociation constant (Kd) of 64.9 nM.

As for B6, binding was characterised by a dissociation constant (Kd) of 2090 nM. This Kd is about 32-fold higher than that of the molecule before.

In turn, B7 registered a Kd of 139 nM.

The molecule B8 displayed a Kd of 1920 nM.

In turn, B9 returned a Kd of 42.3 nM.

On to B10, for which the equilibrium dissociation constant (Kd) worked out at 1100 nM.

The molecule B11 yielded a Kd of 8.58 nM.

B12 registered an equilibrium dissociation constant (Kd) of 4.32 nM.

Take B13: binding was put at a Kd of 397 nM.

Regarding B14, the Kd was 738 nM. This Kd is about 1.9-fold higher than that of the molecule before.

B15 gave a Kd of 332 nM.

B16 showed a Kd of 10.9 nM. This Kd is about 30-fold lower than that of the molecule before.

With B17, the Kd was determined as 48.5 nM.

Regarding B18, the dissociation constant (Kd) came out at 7.13 nM.

In turn, B19 came in with a Kd of 35.4 nM.

Take B20: the equilibrium dissociation constant (Kd) is 66.2 nM.

Molecule B21 had a Kd of 41.9 nM. This Kd is about 1.6-fold lower than that of the molecule before.

Regarding B22, binding was characterised by a dissociation constant (Kd) of 931 nM.

B23 displayed a Kd of over 2300 nM.

B24 showed a Kd of over 2300 nM.

B25 registered a Kd of over 2300 nM.

B26 showed a Kd of 955 nM.

Molecule B27 returned a Kd of 36.5 nM.

The molecule B28 had a Kd of 36.6 nM.

In turn, B29 gave a Kd of 6.57 nM.

The molecule B30 returned a Kd of 4.31 nM.

Turning to B31, the affinity, expressed as Kd, was 1410 nM.

On to B32, for which the Kd is over 2300 nM.

In turn, B33 returned a Kd of 11 nM. That is a double-digit nanomolar value.

In turn, B34 registered a Kd of 28.2 nM.

For the molecule B35, the Kd turned out to be 99.4 nM. This Kd is about 3.5-fold higher than that of the molecule before.

As for B36, binding was put at a Kd of 456 nM.

With B37, the equilibrium dissociation constant (Kd) stood at 6.7 nM.

Take B38: the Kd worked out at 18.6 nM.

B39 showed a dissociation constant (Kd) of 32.9 nM. This Kd lies about 1.8-fold higher than the previous one.

For B40, the dissociation constant (Kd) was determined as 884 nM.

As for B41, binding was characterised by a dissociation constant (Kd) of 126 nM.

On to B42, for which binding was put at a Kd of 13.1 nM.

B43 returned a dissociation constant Kd of over 2300 nM.

The values are drawn from article PMC9352680, “A comprehensive thermodynamic model for RNA binding by the Saccharomyces cerevisiae Pumilio protein PUF4”.
